One substance from patent US9193770 can be followed below.

This experiment deals with TLR5 of the luciferase reporter assay. In words: cell-based or functional assay.

Regarding “native H7 flagellin purified from E. coli O157:H7 (ligand)”, the luciferase reporter assay, TLR5 activity was determined as 0.1 ng/mL.
